Data reported in the supplement of paper PMC7877785.
± gives the uncertainty stated by the source.

Experiment: self-splicing fitness, log relative to wild type (ln ratio); higher = more splicing; Tetrahymena group I intron in knt gene, E. coli kanamycin selection, DiMSum; sequences stand for … in CUCUCU…GGAGGGAAAAGUUAUCAGGCAUGCACCUGGUAGCUAGUCUUUAAACCAAUAGAUUGCAUCGGUUUAAAAGGCAAGACCGUCAAAUUGCGGGAAAGGGGUCAACAGCCGUUCAGUACCAAGUCUCAGGGGAAACUUUGAGAUGGCCUUGCAAAGGGUAUGGUAAUAAGCUGACGGACAUGGUCCUAACCACGCAGCCAAGUCCUAAGUCAACAGAUCUUCUGUUGAUAUGGAUGCAGUUCACAGACUAAAUGUCGGUCGGGGAAGAUGUAUUCUUCUCAUAAGAUAUAGUCGGACCUCUCCUUAAUGGGAGCUAGCGGAUGAAGUGAUGCAACACUGGAGCCGCUGGGAACUAAUUUGUAUGCGAAAGUAUAUUGAUUAGUUUUGGAGUACUCGUGGUCG
Method in brief: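 Colonies from six replicate transformations of E. coli BL21(DE3) were pooled and amplicon-sequenced on an Illumina HiSeq 2500. The library placed an intron with all eight P1ex-region nucleotides randomised inside the knt kanamycin-resistance gene on pET-22b(+), and cells grew overnight at 37°C or 30°C on LB agar with or without 25 μg/mL kanamycin (plus 100 μg/mL carbenicillin, 50 μM IPTG, 0.2% rhamnose). Fitness is the DiMSum error-weighted combination of wild-type-normalised replicate fold changes, kanamycin versus none.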

Sequence | self-splicing fitness (ln) (30 °C) | self-splicing fitness (ln) (37 °C)
ACUUAGCAAUAUUACGCUUC | -2.32 ± 0.19 | -2.18 ± 0.45
CGAUAGCAAUAUUACGCACU | -1.12 ± 0.14 | 0.174 ± 0.14
GCUCAGCAAUAUUACGUGCG | -1.32 ± 0.084 | -0.22 ± 0.1
UAGAAGCAAUAUUACGGCAA | -0.122 ± 0.075 | -0.249 ± 0.088
CUGGAGCAAUAUUACGAUCG | -1.7 ± 0.14 | 0.264 ± 0.21
ACCGAGCAAUAUUACGAGCA | -2.63 ± 0.13 | -1.99 ± 0.13
CGCCAGCAAUAUUACGCCCU | -1.93 ± 0.14 | -0.637 ± 0.13
GCGAAGCAAUAUUACGUCAA | -3.02 ± 0.19 | -2.05 ± 0.15
AAGAAGCAAUAUUACGGAGC | -3.35 ± 0.24 | -2.66 ± 0.23
CAGAAGCAAUAUUACGGAAU | -3.93 ± 0.2 | -1.94 ± 0.18
GUCGAGCAAUAUUACGGAAG | -3.26 ± 0.26 | -2.35 ± 0.28
GUGAAGCAAUAUUACGGGAC | -1.8 ± 0.12 | -0.623 ± 0.13
AUUAAGCAAUAUUACGGCUU | -0.718 ± 0.088 | 0.207 ± 0.12
UCGAAGCAAUAUUACGAACG | -1.82 ± 0.13 | -0.935 ± 0.14
GGGCAGCAAUAUUACGUUGC | -3.77 ± 0.16 | -1.95 ± 0.19
AUGCAGCAAUAUUACGUAUG | -3.15 ± 0.16 | -1.09 ± 0.16
CAGUAGCAAUAUUACGGAGC | – | -1.75 ± 0.33
UAGUAGCAAUAUUACGGUGA | -2.29 ± 0.42 | -1.46 ± 0.24
GCUCAGCAAUAUUACGUGGG | -3.65 ± 0.19 | -1.85 ± 0.16
UGCAAGCAAUAUUACGUCGU | -3.58 ± 0.22 | -1.81 ± 0.17
CUUUAGCAAUAUUACGGGAA | -2.28 ± 0.22 | -1.58 ± 0.3
UGCGAGCAAUAUUACGCCCU | -0.783 ± 0.39 | –
UCCAAGCAAUAUUACGCGUG | -4.16 ± 0.21 | -2.53 ± 0.2
GUCCAGCAAUAUUACGCGCA | -0.0872 ± 0.1 | 0.23 ± 0.11
CCGGAGCAAUAUUACGAUGU | -1.72 ± 0.14 | -0.726 ± 0.17

Sequence | self-splicing fitness (ln) (30 °C) | self-splicing fitness (ln) (37 °C)
AUAUAGCAAUAUUACGUCGC | -2.48 ± 0.27 | -1.31 ± 0.37
ACCAAGCAAUAUUACGUGCC | -0.735 ± 0.082 | -0.801 ± 0.13
GUGGAGCAAUAUUACGUCAU | -4.2 ± 0.32 | -3.24 ± 0.33
CGACAGCAAUAUUACGCUAA | -2.16 ± 0.19 | -1.57 ± 0.18
CCUAAGCAAUAUUACGUGGG | -3.51 ± 0.16 | -2.5 ± 0.15
GGUGAGCAAUAUUACGAAUC | – | -2.04 ± 0.4
AAACAGCAAUAUUACGUUAC | -3.19 ± 0.16 | -2.56 ± 0.26
GCCAAGCAAUAUUACGCUGC | -3.01 ± 0.27 | -2.04 ± 0.28
GAUAAGCAAUAUUACGCGGU | -3.19 ± 0.25 | -1.01 ± 0.19
GGGUAGCAAUAUUACGCGGU | -3.15 ± 0.21 | -1.4 ± 0.2
CUUUAGCAAUAUUACGCUUG | -2.98 ± 0.16 | -2.32 ± 0.17
UGUUAGCAAUAUUACGCCGU | -1.98 ± 0.44 | -0.747 ± 0.42
CGGAAGCAAUAUUACGCCCC | -1.49 ± 0.39 | –
UGCAAGCAAUAUUACGUUUA | -1.49 ± 0.076 | -0.234 ± 0.072
UCGUAGCAAUAUUACGUGAC | -1.99 ± 0.26 | –
GAACAGCAAUAUUACGCCAA | -1.94 ± 0.42 | -2.06 ± 0.32
AGCAAGCAAUAUUACGACUC | -1.12 ± 0.072 | -0.865 ± 0.08
CCGGAGCAAUAUUACGAAGA | -3.63 ± 0.23 | -1.97 ± 0.16
GUCUAGCAAUAUUACGUGCG | -1.76 ± 0.11 | -1.27 ± 0.12
UGUAAGCAAUAUUACGGGGA | – | -1.19 ± 0.25
UCUUAGCAAUAUUACGUACA | -2.58 ± 0.19 | -1.28 ± 0.16
CCCGAGCAAUAUUACGGGGU | -2.92 ± 0.16 | -2.93 ± 0.17
GCGGAGCAAUAUUACGCGUA | -2.77 ± 0.29 | -1.53 ± 0.15
UAGUAGCAAUAUUACGAGCA | -1.07 ± 0.12 | -0.0288 ± 0.12
AGUCAGCAAUAUUACGGCUG | -0.616 ± 0.12 | -1.96 ± 0.22

Sequence | self-splicing fitness (ln) (30 °C) | self-splicing fitness (ln) (37 °C)
ACAAAGCAAUAUUACGGGCU | -1.07 ± 0.055 | -0.972 ± 0.088
AUCAAGCAAUAUUACGCAAA | -2.96 ± 0.2 | -1.67 ± 0.15
UGCAAGCAAUAUUACGGUCU | -0.647 ± 0.07 | 0.283 ± 0.082
UCCUAGCAAUAUUACGGCCU | -2.37 ± 0.34 | -2.29 ± 0.37
AGUGAGCAAUAUUACGCGUA | -1.97 ± 0.27 | -1.48 ± 0.17
GAGAAGCAAUAUUACGAAGG | -2.97 ± 0.24 | –
CAAAAGCAAUAUUACGUAUA | -3 ± 0.15 | -2.38 ± 0.17
CCUUAGCAAUAUUACGGAAU | -3.53 ± 0.2 | -3.15 ± 0.3
GACCAGCAAUAUUACGUCGU | -0.568 ± 0.052 | -0.218 ± 0.069
AUGCAGCAAUAUUACGAUGC | -2.06 ± 0.14 | -0.432 ± 0.14
AAACAGCAAUAUUACGAGGU | -4.6 ± 0.26 | -2.53 ± 0.15
CUAGAGCAAUAUUACGGAGC | – | -3.62 ± 0.34
GAGCAGCAAUAUUACGUAUA | -3.2 ± 0.27 | -2.97 ± 0.27
UGGAAGCAAUAUUACGUAUG | -1.96 ± 0.16 | -0.289 ± 0.14
GGAAAGCAAUAUUACGGCUU | -1.08 ± 0.091 | -0.393 ± 0.14
CAUAAGCAAUAUUACGAUAU | -3.41 ± 0.28 | -2.86 ± 0.32
GUUAAGCAAUAUUACGUGGC | – | -2.1 ± 0.33
CAUGAGCAAUAUUACGAUGG | -1.36 ± 0.1 | -0.83 ± 0.13
ACUUAGCAAUAUUACGUACC | -2.17 ± 0.23 | -1.06 ± 0.23
UAACAGCAAUAUUACGAGUC | -3.74 ± 0.23 | -2.05 ± 0.22
CCAAAGCAAUAUUACGUCAG | -1.64 ± 0.065 | -0.149 ± 0.08
AGGCAGCAAUAUUACGCGGA | -2.08 ± 0.14 | -0.664 ± 0.1
AAGAAGCAAUAUUACGACAG | -2.2 ± 0.11 | -0.487 ± 0.1
UGGAAGCAAUAUUACGGUAC | -4.18 ± 0.39 | -1.5 ± 0.25
CCUCAGCAAUAUUACGCGUU | -3.88 ± 0.23 | -2.96 ± 0.4

Sequence | self-splicing fitness (ln) (30 °C) | self-splicing fitness (ln) (37 °C)
CACUAGCAAUAUUACGUUAA | -2.77 ± 0.2 | -2.11 ± 0.23
GCCGAGCAAUAUUACGGACC | -2.47 ± 0.35 | -1.51 ± 0.39
UGAGAGCAAUAUUACGAUGG | -3.59 ± 0.23 | -2.72 ± 0.2
AAACAGCAAUAUUACGUUCG | -1.23 ± 0.051 | -0.286 ± 0.068
UCGAAGCAAUAUUACGAGAC | -3.11 ± 0.22 | –
UCCUAGCAAUAUUACGAUAG | -2.89 ± 0.33 | -2.14 ± 0.35
GACCAGCAAUAUUACGCCUG | -2.16 ± 0.11 | -0.614 ± 0.12
UUUUAGCAAUAUUACGCAAU | -2.98 ± 0.41 | –
CCCAAGCAAUAUUACGUGGG | -3.29 ± 0.11 | -2.82 ± 0.17
UACGAGCAAUAUUACGCAUA | -3.17 ± 0.19 | -0.975 ± 0.13
CGAUAGCAAUAUUACGUCGG | -1.16 ± 0.11 | -0.171 ± 0.11
UAUCAGCAAUAUUACGCGUA | -0.493 ± 0.1 | 0.0959 ± 0.12
GAUCAGCAAUAUUACGAAGU | -1.17 ± 0.12 | -0.265 ± 0.13
UCCUAGCAAUAUUACGGGGA | -2.59 ± 0.24 | -1.59 ± 0.21
UACGAGCAAUAUUACGAUGC | – | -2.04 ± 0.33
GUGGAGCAAUAUUACGCUCC | -1.83 ± 0.35 | –
UGUGAGCAAUAUUACGACUU | -2.13 ± 0.23 | -2.33 ± 0.26
GCCCAGCAAUAUUACGGGAU | -1.74 ± 0.081 | -1.25 ± 0.1
CGAAAGCAAUAUUACGCAGA | -4.25 ± 0.42 | -0.12 ± 0.17
UCGCAGCAAUAUUACGCGAG | -2.85 ± 0.15 | -2.56 ± 0.15
UCAAAGCAAUAUUACGAUAU | -3.62 ± 0.23 | -2.67 ± 0.18
GCUUAGCAAUAUUACGUAAU | -0.0411 ± 0.068 | 0.545 ± 0.083
CUGAAGCAAUAUUACGAAGU | -3.58 ± 0.2 | -2.77 ± 0.41
UUAAAGCAAUAUUACGGAGG | -1.34 ± 0.12 | -1.27 ± 0.17
